Experimental data from US20100022624.

Target: α-tubulin (human, endogenous)

B1: HDAC6 (human, endogenous) (protein)
chain: MTSTGQDSTTTRQRRSRQNPQSPPQDSSVTSKRNIKKGAVPRSIPNLAEVKKKGKMKKLGQAMEEDLIVGLQGMDLNLEAEALAGTGLVLDEQLNEFHCLWDDSFPEGPERLHAIKEQLIQEGLLDRCVSFQARFAEKEELMLVHSLEYIDLMETTQYMNEGELRVLADTYDSVYLHPNSYSCACLASGSVLRLVDAVLGAEIRNGMAIIRPPGHHAQHSLMDGYCMFNHVAVAARYAQQKHRIRRVLIVDWDVHHGQGTQFTFDQDPSVLYFSIHRYEQGRFWPHLKASNWSTTGFGQGQGYTINVPWNQVGMRDADYIAAFLHVLLPVALEFQPQLVLVAAGFDALQGDPKGEMAATPAGFAQLTHLLMGLAGGKLILSLEGGYNLRALAEGVSASLHTLLGDPCPMLESPGAPCRSAQASVSCALEALEPFWEVLVRSTETVERDNMEEDNVEESEEEGPWEPPVLPILTWPVLQSRTGLVYDQNMMNHCNLWDSHHPEVPQRILRIMCRLEELGLAGRCLTLTPRPATEAELLTCHSAEYVGHLRATEKMKTRELHRESSNFDSIYICPSTFACAQLATGAACRLVEAVLSGEVLNGAAVVRPPGHHAEQDAACGFCFFNSVAVAARHAQTISGHALRILIVDWDVHHGNGTQHMFEDDPSVLYVSLHRYDHGTFFPMGDEGASSQIGRAAGTGFTVNVAWNGPRMGDADYLAAWHRLVLPIAYEFNPELVLVSAGFDAARGDPLGGCQVSPEGYAHLTHLLMGLASGRIILILEGGYNLTSISESMAACTRSLLGDPPPLLTLPRPPLSGALASITETIQVHRRYWRSLRVMKVEDREGPSSSKLVTKKAPQPAKPRLAERMTTREKKVLEAGMGKVTSASFGEESTPGQTNSETAVVALTQDQPSEAATGGATLAQTISEAAIGGAMLGQTTSEEAVGGATPDQTTSEETVGGAILDQTTSEDAVGGATLGQTTSEEAVGGATLAQTTSEAAMEGATLDQTTSEEAPGGTELIQTPLASSTDHQTPPTSPVQGTTPQISPSTLIGSLRTLELGSESQGASESQAPGEENLLGEAAGGQDMADSMLMQGSRGLTDQAIFYAVTPLPWCPHLVAVCPIPAAGLDVTQPCGDCGTIQENWVCLSCYQVYCGRYINGHMLQHHGNSGHPLVLSYIDLSAWCYYCQAYVHHQALLDVKNIAHQNKFGEDMPHPH
amount of acetylated α-tubulin (immunoblot) after HDAC6 siRNA: only HSMCs transfected with siRNAs specific for HDAC6 displayed increased levels of acetylated α-tubulin
